# Target: the molecule itself
# Assay: disulfide-linked dimer fraction in lipid vesicles by SDS-PAGE
protein,measurement,value
SSPGTPASPCSLSGIIIGVTVAAVVLIVAVFVSKSLLWKK [DR5-L TM peptide (synthetic 40-residue DR5-L transmembrane domain)],stoichiometry N,2

# Source: article PMC5394796 (Journal of molecular biology, 2016)
